{"source": "patent US20090012275A1", "about": "(VIB VZW, published 2009)", "key": {"[1]": {"target": "T1, citrate synthase from porcine heart (Roche) (porcine, UniProt P00889 28-464)", "T1 construct": "Bought protein spotted on nitrocellulose", "T1 sequence (looked up)": "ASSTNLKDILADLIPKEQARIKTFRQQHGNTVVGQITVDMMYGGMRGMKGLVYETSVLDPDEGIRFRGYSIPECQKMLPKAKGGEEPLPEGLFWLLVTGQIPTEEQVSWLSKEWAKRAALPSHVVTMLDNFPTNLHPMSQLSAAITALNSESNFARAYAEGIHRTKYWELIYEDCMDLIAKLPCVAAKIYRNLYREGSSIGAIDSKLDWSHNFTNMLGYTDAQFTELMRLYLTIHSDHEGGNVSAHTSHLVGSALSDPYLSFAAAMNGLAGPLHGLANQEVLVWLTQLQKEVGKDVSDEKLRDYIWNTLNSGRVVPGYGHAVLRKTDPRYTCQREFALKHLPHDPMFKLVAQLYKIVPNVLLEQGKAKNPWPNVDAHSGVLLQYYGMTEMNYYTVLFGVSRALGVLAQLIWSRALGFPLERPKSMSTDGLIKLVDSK", "assay": "dot blot: 0.3 mg target protein on nitrocellulose, 10 mM biotinylated peptide, streptavidin-HRP chemiluminescence"}, "[2]": {"target": "T2, glucose-6-phosphate dehydrogenase from Leuconostoc mesenteroides (Sigma) (Leuconostoc mesenteroides, UniProt P11411 2-486)", "T2 construct": "Bought protein spotted on nitrocellulose", "T2 sequence": "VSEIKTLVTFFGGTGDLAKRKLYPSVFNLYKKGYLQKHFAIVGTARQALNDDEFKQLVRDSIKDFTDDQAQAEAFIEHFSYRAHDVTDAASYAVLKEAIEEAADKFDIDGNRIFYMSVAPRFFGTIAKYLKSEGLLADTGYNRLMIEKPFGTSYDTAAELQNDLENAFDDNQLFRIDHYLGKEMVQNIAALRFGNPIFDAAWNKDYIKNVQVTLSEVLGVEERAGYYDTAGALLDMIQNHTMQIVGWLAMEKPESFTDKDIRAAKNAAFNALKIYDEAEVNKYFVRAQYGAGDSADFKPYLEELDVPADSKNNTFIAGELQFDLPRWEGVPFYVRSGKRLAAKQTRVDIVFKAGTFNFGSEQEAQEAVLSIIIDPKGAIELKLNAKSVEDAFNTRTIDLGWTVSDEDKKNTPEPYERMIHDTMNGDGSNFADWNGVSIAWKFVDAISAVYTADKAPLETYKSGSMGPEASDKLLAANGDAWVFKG", "assay": "dot blot: 0.3 mg target protein on nitrocellulose, 10 mM biotinylated peptide, streptavidin-HRP chemiluminescence"}}, "note": "Ends that are not written are not given here. * marks the point of attachment. Biotin = O=C1N[C@H]2[C@H](CS[C@H]2CCCCC(=O)*)N1", "data": [{"binder": "Biotin-ALFWLLVT (Synthetic biotinylated peptide (Jerine Peptide Technologies); biotin is part A, the peptide is part B; also called interferor molecule with a specificity for citrate synthase; biotinylated detection peptide)", "note": "[biotin-ALFWLLVT]", "values": [{"measurement": "binding result", "setting": "[1]", "result": "binds"}]}, {"binder": "Biotin-AFVDAISAVYTA (Synthetic biotinylated peptide; also called interferor molecule with a specificity for glucose-6-phosphate dehydrogenase; biotinylated detection peptide)", "note": "[biotin-AFVDAISAVYTA]", "values": [{"measurement": "binding result", "setting": "[2]", "result": "binds"}]}]}
